{"source": "patent US11319368B2", "about": "“Treatment of hepatotoxicity with IL-11 antibody” (Singapore Health Services PTE LTD., priority 2019, dated 2022)", "molecules": {"B1": {"name": "rmIL11: recombinant mouse IL11 (UniProtKB: P47873, Genscript) (protein)", "chain": "PGPPAGSPRVSSDPRADLDSAVLLTRSLLADTRQLAAQMRDKFPADGDHSLDSLPTLAMSAGTLGSLQLPGVLTRLRVDLMSYLRHVQWLRRAGGPSLKTLEPELGALQARLERLLRRLQLLMSRLALPQAAPDQPVIPLGPPASAWGSIRAAHAILGGLHLTLDWAVRGLLLLKTRL"}, "B2": {"name": "PEGylated rhIL11: PEGylated rhIL11 (Lee et al. 2012) (conjugate, UniProt P20809 22-199, looked up)", "Interleukin-11": "PGPPPGPPRVSPDPRAELDSTVLLTRSLLADTRQLAAQLRDKFPADGDHNLDSLPTLAMSAGALGALQLPGVLTRLRADLLSYLRHVQWLRRAGGSSLKTLEPELGTLQARLDRLLRRLQLLMSRLALPQPPPDPPAPPLAPPSSAWGGIRAAHAILGGLHLTLDWAVRGLLLLKTRL", "modifications": "PEG"}, "B3": {"name": "X209: antagonist (neutralizing) anti-IL11Rα antibody (Widjaja et al., Gastroenterology 2019; Aldevron) (antibody, V domains shown)", "VH": "QVQLQQPGAELVRPGSSVKLSCKASGYTFTNYWMHWLKQRPVQGLEWIGNIGPSDSKTHYNQKFKDKATLTVDKSSSTAYMQLNSLTSEDSAVYYCARGDYVLFTYWGQGTLVTVSA", "VL": "DIVLTQSPATLSLSPGERATLSCRASQSISNNLHWYQQKSHEAPRLLIKYASQSISGIPARFSGSGSGTDFTLSFSSLETEDFAVYFCQQSYSWPLTFGQGTKLEIK"}, "B4": {"name": "X203: antagonist anti-IL11 antibody (Ng et al., Sci Transl Med. 2019) (antibody, V domains shown)", "VH": "EVQLQQSGPELVKPGASVKIPCKASGYTFTDYNMDWVKQSHGKSLEWIGDINPHNGGPIYNQKFTGKATLTVDKSSSTAYMELRSLTSEDTAVYYCARGELGHWYFDVWGTGTTVTVSS", "VL": "DIVLTQSPASLAVSLGQRATISCRASKSVSTSGYSYIHWYQQKPGQPPKLLIYLASNLDSGVPARFSGSGSGTDFTLNIHPVEEEDAATYYCQHSRDLPPTFGGGTKLEIK"}}, "key": {"NOX4": {"biological_target": "T1, NOX4 (Homo sapiens, UniProt Q9NPH5)", "T1 construct": "Human hepatocytes (5200, ScienCell) were maintained in hepatocyte medium; host or cells: primary human hepatocytes", "T1 sequence (Q9NPH5 whole entry)": "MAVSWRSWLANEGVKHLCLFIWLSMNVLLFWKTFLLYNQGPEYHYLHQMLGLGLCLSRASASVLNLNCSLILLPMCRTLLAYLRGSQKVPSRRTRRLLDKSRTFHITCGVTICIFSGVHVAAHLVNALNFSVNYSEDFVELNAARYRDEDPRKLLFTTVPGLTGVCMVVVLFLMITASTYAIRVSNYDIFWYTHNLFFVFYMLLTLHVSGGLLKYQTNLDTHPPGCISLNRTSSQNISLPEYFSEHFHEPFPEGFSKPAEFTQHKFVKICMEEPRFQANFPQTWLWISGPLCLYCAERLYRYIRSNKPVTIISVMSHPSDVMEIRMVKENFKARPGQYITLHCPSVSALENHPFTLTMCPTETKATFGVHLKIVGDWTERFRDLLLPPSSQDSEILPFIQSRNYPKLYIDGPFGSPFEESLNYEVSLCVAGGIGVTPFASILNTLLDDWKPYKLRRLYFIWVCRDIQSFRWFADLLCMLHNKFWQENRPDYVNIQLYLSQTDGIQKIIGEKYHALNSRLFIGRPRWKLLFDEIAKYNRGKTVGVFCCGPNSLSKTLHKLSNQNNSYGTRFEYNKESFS", "T1 sequence (P13498 2-195 partner limits assumed)": "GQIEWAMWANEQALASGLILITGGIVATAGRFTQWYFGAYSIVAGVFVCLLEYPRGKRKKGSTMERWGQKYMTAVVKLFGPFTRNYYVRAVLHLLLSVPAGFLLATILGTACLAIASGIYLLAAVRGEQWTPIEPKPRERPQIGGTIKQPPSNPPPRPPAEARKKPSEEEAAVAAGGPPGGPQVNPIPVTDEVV", "test": "NOX4 inhibitor in rhIL11-stimulated human hepatocytes", "assay_type": "cell-based", "conditions": "rhIL11 10 ng ml^-1, 24 h"}, "human hepatocytes [1]": {"test_system": "human hepatocytes", "conditions": "0.2 mM H2O2, 24 hours", "protocol": "Human hepatocytes (5200, ScienCell) were grown and maintained at 37° C. and 5% CO2. Hepatocyte medium (5201, ScienCell) supplemented with 2% fetal bovine serum and 1% Penicillin-streptomycin was renewed every 2-3 days and cells were passaged at 80% confluence using standard trypsinization techniques. All the experiments were carried out at low cell passage (P2-P3) and cells were serum-starved for 16 hours prior to respective stimulations (24 hours) that were performed in serum-free hepatocyte media. Stimulated cells were compared to unstimulated cells that have been grown for the same duration under the same conditions (serum-free hepatocyte media), but without the stimuli. […] The levels of IL-11 in mouse serum and hepatocyte supernatant were quantified using Mouse IL-11 DuoSet (DY418 and DY008, R&D Systems) and Human IL-11 Quantikine ELISA kit [MUT], R&D Systems), respectively, according to the manufacturer's protocol."}, "mouse hepatocytes": {"test_system": "mouse hepatocytes", "test": "rhIL11 versus rmIL11 on mouse hepatocytes", "assay_type": "cell-based", "excerpt": "Mouse hepatocytes (ABC-TC3928, AcceGen Biotech) were maintained in mouse hepatocyte medium (ABC-TM3928, AcceGen Biotech) supplemented with 1% Penicillin-streptomycin."}, "human hepatocytes [2]": {"test_system": "human hepatocytes", "test": "rhIL11 versus rmIL11 on human hepatocytes", "assay_type": "cell-based", "conditions": "10 ng ml^-1"}, "AILI [3]": {"test_system": "AILI", "test": "rhIL11 or rmIL11 injection in APAP OD mice", "assay_type": "in vivo, mouse", "description": "FIGS. 10A to 10L. […] (A, B, K, L) 24 h. […] FC: fold change"}, "liver": {"test_system": "liver", "conditions": "single subcutaneous injection 500 μg kg^-1", "protocol": "(A) Effect of recombinant human IL11 (rhIL11, 10 ng ml^−1) or recombinant mouse IL11 (rmIL11, 10 ng ml^−1) on ERK, JNK and CASP3 activation status in mouse hepatocytes. (B) ALT levels in mouse hepatocyte supernatant following stimulation by rmIL11 (10 ng ml^−1) or by increasing doses of rhIL11 (1, 5, 10, 15 and 20 ng ml^−1). (C) Schematic of mice receiving a single subcutaneous injection of either saline, rhIL11, or rmIl11 (500 μg kg^−1). (D) Western blot analysis of hepatic p-ERK, p-JNK, and Cl. […] Dose-dependent inhibition effect of rhIL11 on rmIL11-induced (K) ALT secretion and (L) CASP3 activation by mouse hepatocytes. (A, B, K, L) 24 h. (B, K) Data are shown as mean±SD; (E, G) Data are shown as box-and-whisker with median (middle line), 25th-75th percentiles (box), and minimum-maximum values (whiskers). (B, K) Two-tailed, Tukey-corrected Student's t-test; (E) two-tailed Student's t-test; (G) two-tailed Dunnett's test.\nThe levels of alanine transaminase (ALT) or aspartate aminotransferase (AST) in mouse serum and hepatocyte supernatant were measured using ALT Activity (ab105134, Abcam) or AST (ab105135, Abcam) Assay Kits. […] All colorimetric assays were performed according to the manufacturer's protocol.\nWestern blots were carried out from hepatocyte and liver tissue lysates. […] Protein concentrations were determined by Bradford assay (Bio-Rad). […]"}, "kidney": {"test_system": "kidney", "conditions": "100-1000 μg/kg, IP; 10 minutes prior to or 30-60 minutes following IR; cited from earlier work"}, "human hepatocytes [4]": {"test_system": "human hepatocytes", "test": "APAP-mediated activation of Erk and Jnk, western blot", "assay_type": "cell-based", "conditions": "APAP 10 mM, 24 hours; X209 2 μg/ml"}, "[5]": {"test_system": "APAP overdose acute liver injury", "test": "Severe APAP overdose in mice, anti-IL11Rα antibody (X209) 16 h before", "assay_type": "in vivo, mouse", "conditions": "20 mg/kg IP 16 hours before APAP 400 mg/kg"}, "[6]": {"test_system": "APAP overdose acute liver injury", "test": "Severe APAP overdose in mice, X209 10 h after", "assay_type": "in vivo, mouse", "description": "Mice were euthanized at 24, 36 and 48 hours. Serum ALT levels were analysed as described in Example 4.\nLivers were harvested, and fixed as described in Example 4, and digital photographs were taken.\nWestern blots were also performed on protein extracts prepared from the livers of the mice."}, "lethal APAP overdose": {"test_system": "lethal APAP overdose", "test": "Lethal APAP overdose in mice, X209 10 h after", "assay_type": "in vivo, mouse", "conditions": "for gross liver morphology / serum ALT levels versus normal (saline) control mice: day 8 after APAP 550 mg/kg, 20 mg/kg 10 h after", "description": "Mice were euthanized at 24 hours and 192 hours (8 days). Serum ALT levels were analysed as described in Example 4. Livers were harvested, and fixed as described in Example 4, and digital photographs were taken."}, "[7]": {"test_system": "primary human hepatocytes", "test": "APAP-challenged primary human hepatocytes with X209", "assay_type": "cell-based", "conditions": "APAP 20 mM, X209 2 μg ml^-1, 24 h", "excerpt": "PI^+ve cells were quantified with the flow cytometer (Fortessa, BD Biosciences) and analyzed with FlowJo version 7 software (TreeStar)."}, "AILI [8]": {"test_system": "AILI", "test": "X209, NAC or NAC+X209 3 h after APAP in mice", "protocol": "(§1) Mice were administered anti-IL11Rα (X209) or IgG isotype control antibody at different times and doses, as described above or in the figure legends.\n(§2) The levels of alanine transaminase (ALT) or aspartate aminotransferase (AST) in mouse serum and hepatocyte supernatant were measured using ALT Activity (ab105134, Abcam) or AST (ab105135, Abcam) Assay Kits. Liver glutathione sulfhydryl (GSH) measurements were performed using Glutathione Colorimetric Detection Kit (EIAGSHC, Thermo Fisher). All colorimetric assays were performed according to the manufacturer's protocol.\nWestern blots were carried out from hepatocyte and liver tissue lysates. Hepatocytes and tissues were homogenized in radioimmunoprecipitation assay (RIPA) buffer containing protease and phosphatase inhibitors (Thermo Fisher), followed by centrifugation to clear the lysate. Protein concentrations were determined by Bradford assay (Bio-Rad). Equal amounts of protein lysates were separated by SDS-PAGE, transferred to PVDF membrane, and subjected to immunoblot analysis for the indicated primary antibodies. Proteins were visualized using the ECL detection system (Pierce) with the appropriate secondary antibodies."}, "AILI [9]": {"test_system": "AILI", "test": "X209 preventive dosing 16 h prior to APAP in mice (6.8)", "protocol": "as §1, §2\nLivers were fixed for 48 h at room temperature (RT) in 10% neutral-buffered formalin (NBF), dehydrated, embedded in paraffin blocks and sectioned at 7 μm. Sections were stained with H&E according to standard protocol and examined by light microscopy."}, "human hepatocytes [10]": {"test_system": "human hepatocytes", "test": "APAP-mediated hepatocyte death, Annexin V/PI flow cytometry", "conditions": "APAP 20 mM, 24 hours; X209 2 μg/ml", "protocol": "Cells were serum-starved for 16 hours prior to their used in experiments, by culture in serum-free hepatocyte medium.\nHepatocytes were then stained using the FITC Annexin V/Dead Cell Apoptosis Kit (V13242, Thermo Fisher) according to the manufacturer's instructions, and Annexin V-FITC/PI-stained cells were analysed by flow cytometry using a BD LSRFortessa flow cytometer (BD Bioscience). 10,000 cells were analyzed per sample. Data was analyzed using FlowJo version 7 software."}, "[11]": {"test_system": "APAP-induced liver injury", "test": "Mouse model of APAP-induced liver injury, anti-IL-11Rα antibody 16 h prior to APAP (Example 2)", "protocol": "Liver samples were excised and fixed for 48 hours at room temperature in 10% neutral-buffered formalin (NBF), dehydrated, embedded in paraffin blocks and sectioned at 7 μm. Sections were stained with Hematoxylin&Eosin (H&E) according to standard protocol and examined by light microscopy."}, "[12]": {"test_system": "APAP overdose acute liver injury", "test": "Severe APAP overdose in mice, anti-IL11 antibody (X203) 16 h before", "assay_type": "in vivo, mouse", "conditions": "20 mg/kg IP 16 hours before APAP 400 mg/kg; 24 hours after APAP"}, "[13]": {"conditions": "20 mg/kg 10 h after APAP 400 mg/kg"}, "[14]": {"conditions": "20 mg/kg IP 10 hours after APAP 400 mg/kg"}, "[15]": {"conditions": "listed as Antagonist antibody inhibitor of IL-11 mediated signalling"}, "[16]": {"conditions": "10 mg/kg IP 16 hours prior to APAP 400 mg/kg"}}, "note": "Entries after “also recorded” stand apart in the source; their conditions may differ.", "data": [{"molecule": "CN(C)c1cccc(-c2c3c(=O)n(-c4ccccc4Cl)[nH]c3cc(=O)n2C)c1", "note": "[GKT-13781]", "values": [{"measurement": "IL11-stimulated GSH depletion, CASP3 activation and cell death", "setting": "NOX4", "value": "prevented IL11-stimulated GSH depletion, CASP3 activation and cell death in a dose-dependent manner"}]}, {"molecule": "OO", "note": "[H2O2, hydrogen peroxide]", "values": [{"measurement": "IL-11 upregulated in the supernatant", "setting": "human hepatocytes [1]", "value": 10, "unit": "fold"}]}, {"molecule": "B1", "values": [{"measurement": "ERK and JNK phosphorylation, CASP3 cleavage", "setting": "mouse hepatocytes; 10 ng ml^-1, 24 h", "value": "stimulated ERK and JNK phosphorylation and induced CASP3 cleavage"}, {"measurement": "mouse hepatocyte cell death (ALT in supernatant)", "setting": "mouse hepatocytes; 24 h", "value": "induced mouse hepatocyte cell death"}, {"measurement": "ERK and JNK signaling and hepatocyte death", "setting": "human hepatocytes [2]", "value": "did not"}, {"measurement": "hepatic GSH levels after APAP", "setting": "AILI [3]; APAP injury", "value": "did not"}, {"measurement": "protection against AILI", "setting": "AILI [3]; subcutaneous injection, APAP OD", "value": "not protective"}, {"measurement": "hepatic ERK and JNK phosphorylation", "setting": "liver", "value": "gradual ERK and immediate JNK activation"}]}, {"molecule": "B2", "values": [{"measurement": "renoprotection", "setting": "kidney", "value": "The authors conclude that IL11 is renoprotective based on pre-"}]}, {"molecule": "B3", "values": [{"measurement": "levels of p-ERK and pJNK", "setting": "human hepatocytes [4]", "value": "substantially reduce the levels of p-ERK and pJNK"}, {"measurement": "hepatocyte necrosis, H&E", "setting": "[5]", "value": "substantially less hepatocyte necrosis"}, {"measurement": "serum ALT levels", "setting": "[5]; 24 hours after APAP", "value": "substantial reduction in serum ALT levels"}, {"measurement": "EdU staining, nuclei with recent DNA synthesis", "setting": "[6]; [13]", "value": "very large numbers of nuclei with evidence of recent DNA synthesis"}, {"measurement": "cleaved CASP3 in liver", "setting": "[6]; [13]", "value": "reduction in cleaved CASP3 at 24 h"}, {"measurement": "liver damage (gross anatomy, histology, serum IL11, ALT and AST levels)", "setting": "[6]; [13]", "value": "largely reversed liver damage by the second day after APAP"}, {"measurement": "liver regeneration markers (PCNA, Cyclin D1/D3/E1, p-RB)", "setting": "[6]; [13]", "value": "strong upregulation of PCNA, Cyclin D1/D3/E1, and phosphorylation of RB"}, {"measurement": "gross liver morphology", "setting": "[6]; [14]", "value": "restore gross liver morphology"}, {"measurement": "hepatic ERK and JNK activation (p-ERK, pJNK1, pJNK2), western blot", "setting": "[6]; [14]", "value": "substantially reduced the levels of p-ERK, pJNK1 and pJNK2; also recorded: effectively blocked ERK and JNK activation"}, {"measurement": "serum ALT levels", "setting": "[6]; 20 mg/kg IP 10 hours after APAP 400 mg/kg, 24, 36 and 48 hours", "value": "substantial reduction in serum ALT levels"}, {"measurement": "survival by the study end", "setting": "lethal APAP overdose; 20 mg/kg 10 h after lethal APAP 550 mg/kg, 8 days", "value": 90, "unit": "%"}, {"measurement": "survival relative to IgG-treated controls", "setting": "lethal APAP overdose; 20 mg/kg IP 10 hours after APAP 550 mg/kg, monitored 8 days", "value": "significantly improved survival"}, {"measurement": "gross liver morphology", "setting": "lethal APAP overdose", "value": "normal liver morphology"}, {"measurement": "serum ALT levels versus normal (saline) control mice", "setting": "lethal APAP overdose", "value": "comparable to controls"}, {"measurement": "gross liver morphology", "setting": "lethal APAP overdose; [15]", "value": "restore gross liver morphology"}, {"measurement": "serum ALT levels versus normal (saline) control mice", "setting": "lethal APAP overdose; [15]", "value": "not significantly different"}, {"measurement": "APAP-induced NOX4 upregulation and depletion in hepatocyte GSH levels", "setting": "[7]", "value": "blocked"}, {"measurement": "CASP3 cleavage, cell death, ERK and JNK activation", "setting": "[7]", "value": "inhibited CASP3 cleavage and cell death, as well as ERK and JNK activation"}, {"measurement": "JNK and ERK activation", "setting": "AILI [8]; 2.5-10 mg kg^-1 3 h after APAP", "value": "Reduced JNK and ERK activation"}, {"measurement": "markers of liver damage and hepatic GSH levels", "setting": "AILI [8]; 2.5-10 mg kg^-1 3 h after APAP", "value": "dose-dependent improvements in markers of liver damage and in hepatic GSH levels"}, {"measurement": "ALT reduction", "setting": "AILI [8]; 3 h after APAP, NAC 500 mg kg^-1, X209 5 mg kg^-1", "value": 47, "unit": "%"}, {"measurement": "centrilobular necrosis, histology", "setting": "AILI [9]; 10 mg kg^-1 16 h prior to APAP", "value": "limited histological evidence of centrilobular necrosis"}, {"measurement": "hepatic GSH levels", "setting": "AILI [9]; 10 mg kg^-1 16 h prior to APAP", "value": "largely restored hepatic GSH levels"}, {"measurement": "reduction of serum markers of liver damage", "setting": "AILI [9]; 10 mg kg^-1 16 h prior to APAP 400 mg kg^-1", "value": "over 70%"}, {"measurement": "proportion of dead hepatocytes", "setting": "human hepatocytes [10]", "value": "substantially reduce the proportion of dead hepatocytes"}, {"measurement": "APAP-induced loss in liver mass (liver index)", "setting": "[11]; [16]", "value": "prevent APAP-induced loss in liver mass"}, {"measurement": "centrilobular necrosis, H&E liver histology", "setting": "[11]; [16]", "value": "reduced"}, {"measurement": "ALT levels lower compared to IgG control", "setting": "[11]; 10 mg/kg IP 16 hours prior to APAP 400 mg/kg, 24 hours post-APAP", "value": 55, "unit": "%"}, {"measurement": "mobility and activity of the mice", "setting": "[11]; 24 hours post-APAP treatment", "value": "normal mobility and activity"}]}, {"molecule": "B4", "values": [{"measurement": "serum ALT levels", "setting": "[12]", "value": "substantial reduction"}, {"measurement": "serum AST levels", "setting": "[12]", "value": "substantial reduction"}]}]}
